Measurements: patent publication US5710252

Target: FLAG epitope Trypsin site N-terminally tagged 9 repeat GG biopolymer (SEQ ID NO:20)

completeness of the Trypsin cleavage reaction, by relative mobility on SDS gels: 100%
Substance: Trypsin (type XI DPCC treated) (enzyme)
